This note sets out measurements from publication PMC8782398.

Assay [1] concerns the target human MOP receptor in HEK293 cells (human), P35372.
In assay [2] the target is T1, human mu opioid peptide (MOP) receptor in CHO cells (human), P35372.
In assay [3] the target is human MOP receptor in HEK293 cells (human), P35372. Put plainly: radioligand binding.
Assay [4] addresses T1, human mu opioid peptide (MOP) receptor …. Put plainly: radioligand binding.
In assay [5] the target is T2, human delta opioid peptide (DOP) receptor in CHO cells (human), P41143.
T2 chain: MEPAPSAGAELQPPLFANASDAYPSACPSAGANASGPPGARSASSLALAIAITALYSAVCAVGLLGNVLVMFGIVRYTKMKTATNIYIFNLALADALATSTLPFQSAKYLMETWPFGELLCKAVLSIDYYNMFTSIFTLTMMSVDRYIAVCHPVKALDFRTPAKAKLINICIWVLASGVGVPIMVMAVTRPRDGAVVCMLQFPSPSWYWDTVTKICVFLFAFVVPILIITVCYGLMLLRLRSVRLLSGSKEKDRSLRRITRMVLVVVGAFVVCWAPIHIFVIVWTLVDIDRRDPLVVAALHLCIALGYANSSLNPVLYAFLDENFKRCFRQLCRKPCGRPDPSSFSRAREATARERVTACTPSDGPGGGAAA
Put plainly: radioligand binding.

In assay [6] the target is human KOP receptor in CHO cells (human), P41145. Put plainly: radioligand binding.

Several values for one entry are separate records, joined by “and”; a condition that tells them apart may be missing. Equal entries are not always repeated.

Sequence of human MOP receptor in HEK293 cells (human), P35372 (P35372 whole entry): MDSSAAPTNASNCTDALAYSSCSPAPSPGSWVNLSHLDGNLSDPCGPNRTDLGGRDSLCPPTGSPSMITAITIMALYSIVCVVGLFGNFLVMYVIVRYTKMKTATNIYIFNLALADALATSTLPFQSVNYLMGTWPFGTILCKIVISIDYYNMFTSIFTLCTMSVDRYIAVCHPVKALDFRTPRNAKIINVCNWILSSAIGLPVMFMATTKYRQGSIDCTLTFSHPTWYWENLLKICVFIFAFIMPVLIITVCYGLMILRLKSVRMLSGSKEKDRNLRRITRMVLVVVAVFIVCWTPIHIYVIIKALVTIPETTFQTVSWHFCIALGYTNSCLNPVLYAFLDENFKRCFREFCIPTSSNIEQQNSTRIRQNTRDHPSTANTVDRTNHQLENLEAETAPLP
T1 sequence (P35372 whole entry): as above
Sequence of human KOP receptor in CHO cells (human), P41145 (P41145 whole entry): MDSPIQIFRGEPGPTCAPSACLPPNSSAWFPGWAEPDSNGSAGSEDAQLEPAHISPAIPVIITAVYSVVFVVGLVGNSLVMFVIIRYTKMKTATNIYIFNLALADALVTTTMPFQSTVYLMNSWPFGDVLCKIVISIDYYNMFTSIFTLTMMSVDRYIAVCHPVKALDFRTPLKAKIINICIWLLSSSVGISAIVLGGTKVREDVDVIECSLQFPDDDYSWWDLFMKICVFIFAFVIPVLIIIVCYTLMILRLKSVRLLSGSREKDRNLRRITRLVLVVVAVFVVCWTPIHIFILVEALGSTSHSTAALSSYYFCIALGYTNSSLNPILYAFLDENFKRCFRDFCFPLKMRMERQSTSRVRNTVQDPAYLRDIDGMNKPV

B1: Dermorphin (peptide)
chain: YAFGYPS
modifications: not checked
In assay [1], B1 had a GTPγ[35S] binding, HEKMOP membranes: Emax (stimulation factor) (stimulation factor) of 1.43 and an inhibition of forskolin-stimulated cAMP formation, HEKMOP cells: Emax (% inhibition) of 75.6%. The molecule further registered a GTPγ[35S] binding, CHOMOP membranes: maximal response (stimulation factor) (stimulation factor) in assay [2] of 2.63.

B2: Dermorphin-Nociceptin/Orphanin FQ (DeNO) (peptide)
chain 1: YAFGYPS
chain 2: FGGFTGARKSARKLANQC
modifications: not checked
B2: in assay [1], the GTPγ[35S] binding, HEKMOP membranes: Emax (stimulation factor) (stimulation factor) was 1.53 and the inhibition of forskolin-stimulated cAMP formation, HEKMOP cells: Emax (% inhibition) turned out to be 77.3%. Also, the other in assay [3] was 9 and 8.44.

B3: Dermorphin-UFP101 (De101) (peptide)
chain 1: YAFGYPS
chain 2: FGGFTGARKSARKRKNQC
modifications: not checked
Regarding B3, the GTPγ[35S] binding, HEKMOP membranes: Emax (stimulation factor) (stimulation factor) in assay [1] was determined as 1.44. In addition, the inhibition of forskolin-stimulated cAMP formation, HEKMOP cells: Emax (% inhibition) in assay [1] turned out to be 73.3%. The molecule also gave a GTPγ[35S] binding, CHOMOP membranes: maximal response (stimulation factor) (stimulation factor) in assay [2] of 2.71. Further, the other in assay [3] was 9.28 and 8.63; in assay [4], 9.64; in assay [5], 7.95; in assay [6], 7.61.
